Source: patent US20090317363A1

Biological target: CCR5 (UniProt P51681)
Assay: cell-based or functional assay

Binder	CCR5 sequestration (%) (% of control surface CCR5)	CCR5 signalling (%) (% of Emax of PSC-RANTES)	anti-HIV potency (IC50, nM) by cell fusion assay [nM]	anti-HIV potency (IC50, nM) by viral replication assay [nM]
RANTES derivative: signature sequence SEQ ID NO: 4 fused to positions 10-68 of native RANTES (SEQ ID NO: 1) (ligand) QGPPLMWLQVCCFAYIARPLPRAHIKEYFYTSGKCSNPAVVFVTRKNRQVCANPEKKWVREYINSLEMS	3	4.6	0.02	0.38
RANTES derivative: signature sequence SEQ ID NO: 30 fused to positions 10-68 of native RANTES (SEQ ID NO: 1) (ligand) QGPPLSWLQVCCFAYIARPLPRAHIKEYFYTSGKCSNPAVVFVTRKNRQVCANPEKKWVREYINSLEMS	4	4.1	0.01	
RANTES derivative: signature sequence SEQ ID NO: 31 fused to positions 10-68 of native RANTES (SEQ ID NO: 1) (ligand) QGPPLSWLQSCCFAYIARPLPRAHIKEYFYTSGKCSNPAVVFVTRKNRQVCANPEKKWVREYINSLEMS	6	3.6	0.02	
RANTES derivative: signature sequence SEQ ID NO: 32 fused to positions 10-68 of native RANTES (SEQ ID NO: 1) (ligand) QGPPGQWSQVCCFAYIARPLPRAHIKEYFYTSGKCSNPAVVFVTRKNRQVCANPEKKWVREYINSLEMS	5	6	0.03	
RANTES derivative: signature sequence SEQ ID NO: 33 fused to positions 10-68 of native RANTES (SEQ ID NO: 1) (ligand) QGPPMMAGLSCCFAYIARPLPRAHIKEYFYTSGKCSNPAVVFVTRKNRQVCANPEKKWVREYINSLEMS	0	0.2	0.03	
RANTES derivative: signature sequence SEQ ID NO: 34 fused to positions 10-68 of native RANTES (SEQ ID NO: 1) (ligand) QGPPLSWQQSCCFAYIARPLPRAHIKEYFYTSGKCSNPAVVFVTRKNRQVCANPEKKWVREYINSLEMS	8	5.1	0.03	
RANTES derivative: signature sequence SEQ ID NO: 35 fused to positions 10-68 of native RANTES (SEQ ID NO: 1) (ligand) QGPPGMWSQSCCFAYIARPLPRAHIKEYFYTSGKCSNPAVVFVTRKNRQVCANPEKKWVREYINSLEMS	5	4.9	0.05	
RANTES derivative: signature sequence SEQ ID NO: 36 fused to positions 10-68 of native RANTES (SEQ ID NO: 1) (ligand) QGPPLQWRQSCCFAYIARPLPRAHIKEYFYTSGKCSNPAVVFVTRKNRQVCANPEKKWVREYINSLEMS	7	5.1	0.05	
RANTES derivative: signature sequence SEQ ID NO: 5 fused to positions 10-68 of native RANTES (SEQ ID NO: 1) (ligand) QGPPLMWTQSCCFAYIARPLPRAHIKEYFYTSGKCSNPAVVFVTRKNRQVCANPEKKWVREYINSLEMS	0	5.3	0.02	0.576
RANTES derivative: signature sequence SEQ ID NO: 37 fused to positions 10-68 of native RANTES (SEQ ID NO: 1) (ligand) QGPPLMGTQSCCFAYIARPLPRAHIKEYFYTSGKCSNPAVVFVTRKNRQVCANPEKKWVREYINSLEMS	5	0.7	0.09	
RANTES derivative: signature sequence SEQ ID NO: 38 fused to positions 10-68 of native RANTES (SEQ ID NO: 1) (ligand) QGPPLMQLQVCCFAYIARPLPRAHIKEYFYTSGKCSNPAVVFVTRKNRQVCANPEKKWVREYINSLEMS	3	0.3	0.1	
RANTES derivative: signature sequence SEQ ID NO: 39 fused to positions 10-68 of native RANTES (SEQ ID NO: 1) (ligand) QGPPLSWSQVCCFAYIARPLPRAHIKEYFYTSGKCSNPAVVFVTRKNRQVCANPEKKWVREYINSLEMS	5	1.7	0.1	
RANTES derivative: signature sequence SEQ ID NO: 40 fused to positions 10-68 of native RANTES (SEQ ID NO: 1) (ligand) QGPPMSWSQSCCFAYIARPLPRAHIKEYFYTSGKCSNPAVVFVTRKNRQVCANPEKKWVREYINSLEMS	6	0	0.11	
RANTES derivative: signature sequence SEQ ID NO: 41 fused to positions 10-68 of native RANTES (SEQ ID NO: 1) (ligand) QGPPLMNLQVCCFAYIARPLPRAHIKEYFYTSGKCSNPAVVFVTRKNRQVCANPEKKWVREYINSLEMS	9	0	0.12	
RANTES derivative: signature sequence SEQ ID NO: 42 fused to positions 10-68 of native RANTES (SEQ ID NO: 1) (ligand) QGPPMSAYQVCCFAYIARPLPRAHIKEYFYTSGKCSNPAVVFVTRKNRQVCANPEKKWVREYINSLEMS	0	0.2	0.16	
RANTES derivative: signature sequence SEQ ID NO: 43 fused to positions 10-68 of native RANTES (SEQ ID NO: 1) (ligand) QGPPMQGGLSCCFAYIARPLPRAHIKEYFYTSGKCSNPAVVFVTRKNRQVCANPEKKWVREYINSLEMS	4	0.3	0.29	

Binder	CCR5 sequestration (%) (% of control surface CCR5)	CCR5 signalling (%) (% of Emax of PSC-RANTES)	anti-HIV potency (IC50, nM) by cell fusion assay [nM]	anti-HIV potency (IC50, nM) by viral replication assay [nM]
RANTES derivative: signature sequence SEQ ID NO: 44 fused to positions 10-68 of native RANTES (SEQ ID NO: 1) (ligand) QGPPLMSLAVCCFAYIARPLPRAHIKEYFYTSGKCSNPAVVFVTRKNRQVCANPEKKWVREYINSLEMS	60	68.5	0.02	
RANTES derivative: signature sequence SEQ ID NO: 45 fused to positions 10-68 of native RANTES (SEQ ID NO: 1) (ligand) QGPPLMSLTVCCFAYIARPLPRAHIKEYFYTSGKCSNPAVVFVTRKNRQVCANPEKKWVREYINSLEMS	62	77.4	0.02	
RANTES derivative: signature sequence SEQ ID NO: 46 fused to positions 10-68 of native RANTES (SEQ ID NO: 1) (ligand) QGPLSGWAQVCCFAYIARPLPRAHIKEYFYTSGKCSNPAVVFVTRKNRQVCANPEKKWVREYINSLEMS	72	97.6	0.4	
RANTES derivative: signature sequence SEQ ID NO: 47 fused to positions 10-68 of native RANTES (SEQ ID NO: 1) (ligand) QGPLSQSSQVCCFAYIARPLPRAHIKEYFYTSGKCSNPAVVFVTRKNRQVCANPEKKWVREYINSLEMS	78	96.9	0.44	
RANTES derivative: signature sequence SEQ ID NO: 48 fused to positions 10-68 of native RANTES (SEQ ID NO: 1) (ligand) QGPLSSQSQVCCFAYIARPLPRAHIKEYFYTSGKCSNPAVVFVTRKNRQVCANPEKKWVREYINSLEMS	78	100	0.64	
RANTES derivative: signature sequence SEQ ID NO: 49 fused to positions 10-68 of native RANTES (SEQ ID NO: 1) (ligand) QGPLGQQGQVCCFAYIARPLPRAHIKEYFYTSGKCSNPAVVFVTRKNRQVCANPEKKWVREYINSLEMS	77	97.2	0.74	
RANTES derivative: signature sequence SEQ ID NO: 6 fused to positions 10-68 of native RANTES (SEQ ID NO: 1) (ligand) QGPPLMWLQTCCFAYIARPLPRAHIKEYFYTSGKCSNPAVVFVTRKNRQVCANPEKKWVREYINSLEMS	3	1.4	0.02	289
RANTES derivative: signature sequence SEQ ID NO: 50 fused to positions 10-68 of native RANTES (SEQ ID NO: 1) (ligand) QGPPLQWFQVCCFAYIARPLPRAHIKEYFYTSGKCSNPAVVFVTRKNRQVCANPEKKWVREYINSLEMS	11	7.6	0.02	
RANTES derivative: signature sequence SEQ ID NO: 51 fused to positions 10-68 of native RANTES (SEQ ID NO: 1) (ligand) QGPPLQWTQVCCFAYIARPLPRAHIKEYFYTSGKCSNPAVVFVTRKNRQVCANPEKKWVREYINSLEMS	12	5	0.02	
RANTES derivative: signature sequence SEQ ID NO: 52 fused to positions 10-68 of native RANTES (SEQ ID NO: 1) (ligand) QGPPLMALSVCCFAYIARPLPRAHIKEYFYTSGKCSNPAVVFVTRKNRQVCANPEKKWVREYINSLEMS	11	8.3	0.02	
RANTES derivative: signature sequence SEQ ID NO: 53 fused to positions 10-68 of native RANTES (SEQ ID NO: 1) (ligand) QGPPLMWSQVCCFAYIARPLPRAHIKEYFYTSGKCSNPAVVFVTRKNRQVCANPEKKWVREYINSLEMS	16	5.1	0.02	
RANTES derivative: signature sequence SEQ ID NO: 54 fused to positions 10-68 of native RANTES (SEQ ID NO: 1) (ligand) QGPPGQWGQVCCFAYIARPLPRAHIKEYFYTSGKCSNPAVVFVTRKNRQVCANPEKKWVREYINSLEMS	12	2.1	0.06	
RANTES derivative: signature sequence SEQ ID NO: 55 fused to positions 10-68 of native RANTES (SEQ ID NO: 1) (ligand) QGPPGSWSQVCCFAYIARPLPRAHIKEYFYTSGKCSNPAVVFVTRKNRQVCANPEKKWVREYINSLEMS	33	7.3	0.07	
RANTES derivative: signature sequence SEQ ID NO: 56 fused to positions 10-68 of native RANTES (SEQ ID NO: 1) (ligand) QGPPLMSSQSCCFAYIARPLPRAHIKEYFYTSGKCSNPAVVFVTRKNRQVCANPEKKWVREYINSLEMS	15	7.5	0.15	
RANTES derivative: signature sequence SEQ ID NO: 57 fused to positions 10-68 of native RANTES (SEQ ID NO: 1) (ligand) QGPPLMGLSVCCFAYIARPLPRAHIKEYFYTSGKCSNPAVVFVTRKNRQVCANPEKKWVREYINSLEMS	18	4.9	0.16	
